Where two headings read alike, the source gives them in different places.
Key:
[1] = test system: pFAγ::NifD::HA fusion polypeptide
[2] = target: pFAγ::NifD::FLAG fusion polypeptide (Klebsiella pneumoniae (NifD part); Arabidopsis thaliana (pFAγ MTP)); test: cell-based or functional assay
[3] = target: the molecule itself; test: SDS-PAGE and Western blot of N. benthamiana leaf extracts; self-association (band at about double the molecular weight)
[4] = target: NifD polypeptide encoded by pMIT2.1 (wild-type nitrogenase gene cluster) in E. coli, P00466
[5] = target: T1, FAγ^51::NifD::HA fusion polypeptide (constructs SN6, SN7, SN8)
T1 chain: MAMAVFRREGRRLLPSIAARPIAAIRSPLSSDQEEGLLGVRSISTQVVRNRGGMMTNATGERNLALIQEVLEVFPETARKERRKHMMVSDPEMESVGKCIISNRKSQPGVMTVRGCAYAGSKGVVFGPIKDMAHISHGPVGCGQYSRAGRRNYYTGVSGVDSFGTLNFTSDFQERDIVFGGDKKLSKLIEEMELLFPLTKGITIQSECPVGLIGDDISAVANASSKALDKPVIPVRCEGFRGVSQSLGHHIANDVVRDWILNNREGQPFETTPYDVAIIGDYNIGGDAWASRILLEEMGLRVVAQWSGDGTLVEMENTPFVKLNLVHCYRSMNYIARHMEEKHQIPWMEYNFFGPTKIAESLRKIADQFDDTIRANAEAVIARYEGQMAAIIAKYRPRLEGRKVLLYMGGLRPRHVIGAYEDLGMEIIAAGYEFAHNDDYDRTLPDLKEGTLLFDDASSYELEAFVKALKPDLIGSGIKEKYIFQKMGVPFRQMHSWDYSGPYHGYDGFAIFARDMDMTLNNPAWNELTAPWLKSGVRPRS

[6] = target: T2, pFAγ::NifD::HA fusion polypeptide
T2 chain: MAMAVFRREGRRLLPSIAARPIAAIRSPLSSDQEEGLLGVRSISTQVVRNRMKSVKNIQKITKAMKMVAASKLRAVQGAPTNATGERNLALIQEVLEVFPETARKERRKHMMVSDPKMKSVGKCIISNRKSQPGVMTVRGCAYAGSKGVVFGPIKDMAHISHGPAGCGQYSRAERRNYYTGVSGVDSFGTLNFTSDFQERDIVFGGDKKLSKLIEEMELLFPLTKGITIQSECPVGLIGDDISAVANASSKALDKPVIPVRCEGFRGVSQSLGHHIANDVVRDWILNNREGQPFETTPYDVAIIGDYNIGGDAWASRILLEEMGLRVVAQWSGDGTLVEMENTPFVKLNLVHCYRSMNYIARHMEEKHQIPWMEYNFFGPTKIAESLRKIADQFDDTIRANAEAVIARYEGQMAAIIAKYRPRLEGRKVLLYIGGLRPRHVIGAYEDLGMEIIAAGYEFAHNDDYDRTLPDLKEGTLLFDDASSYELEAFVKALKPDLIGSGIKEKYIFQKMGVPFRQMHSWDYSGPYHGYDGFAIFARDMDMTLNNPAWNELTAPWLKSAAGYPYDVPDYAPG

NifD polypeptide encoded by pMIT2.1 (wild-type nitrogenase gene cluster) in E. coli, P00466, sequence (P00466 whole entry, looked up, the tested form may be a part): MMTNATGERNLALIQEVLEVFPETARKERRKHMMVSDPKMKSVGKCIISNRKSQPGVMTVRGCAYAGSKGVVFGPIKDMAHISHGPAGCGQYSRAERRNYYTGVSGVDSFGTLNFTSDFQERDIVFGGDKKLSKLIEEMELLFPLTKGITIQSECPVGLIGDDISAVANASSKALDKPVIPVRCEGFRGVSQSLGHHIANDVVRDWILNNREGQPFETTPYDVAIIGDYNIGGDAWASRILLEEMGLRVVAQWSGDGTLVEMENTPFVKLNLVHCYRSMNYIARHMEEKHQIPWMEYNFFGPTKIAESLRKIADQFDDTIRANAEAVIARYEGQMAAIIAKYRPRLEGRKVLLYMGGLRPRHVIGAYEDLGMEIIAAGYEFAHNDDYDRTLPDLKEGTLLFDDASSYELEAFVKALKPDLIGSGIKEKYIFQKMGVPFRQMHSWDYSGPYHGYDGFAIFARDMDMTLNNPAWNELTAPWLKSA

Molecule: pFAγ::NifH::HA fusion polypeptide
- extent of MTP processing of NifD::HA on co-expression (Western blot) [1]: the extent of processing of the MTP sequence fused to NifD::HA was increased in the presence of the NifK and NifH polypeptides

Molecule: pFAγ::NifK fusion polypeptide (pRA25), lacking any C-terminal extension (enzyme)
- level of NifD::FLAG accumulation (band intensity normalised to a background band, Western blot anti-FLAG), co-expression with pRA25 against pRA11 (NifK with C-terminal extension) [2]: 50%

B1: pFAγ::NifY::HA fusion polypeptide (other)
chain: ISTQVVRNRMKSVKNIQKITKAMKMVAASKLRAVQGAPSDNDTLFWRMLALFQSLPDLQPAQIVDWLAQESGETLTPERLATLTQPQLAASFPSATAVMSPARWSRVMASLQGALPAHLRIVRPAQRTPQLLAAFCSQDGLVINGHFGQGRLFFIYAFDEQGGWLYDLRRYPSAPHQQEANEVRARLIEDCQLLFCQEIGGPAAARPIRHRIHPMKAQPGTTIQAQCEAINTLLAGRLPPWLAKRLNRDNPLEERVFAGGGGGYPYDVPDYAPG
notes: Expressed in N. benthamiana; also called pRA12
- binding result [3]: binds

B2: pFAγ::NifS::HA fusion polypeptide (enzyme)
chain: ISTQVVRNRMKSVKNIQKITKAMKMVAASKLRAVQGAPKQVYLDNNATTRLDPMVLEAMMPFLTDFYGNPSSIHDFGIPAQAALERAHQQAAALLGAEYPSEIIFTSCATEATATAIASAIALLPERREIITSVVEHPATLAACEHMEREGYRIHRIAVDGEGALDMAQFRAALSPRVALVSVMWANNETGVLFPIGEMAELAHEQGALFHCDAVQVVGKIPIAVGQTRIDMLSCSAHKFHGPKGVGCLYLRRGTRFRPLLRGGHQEYGRRAGTENICGIVGMGAACELANIHLPGMTHIGQLRNRLEHRLLASVPSVMVMGGGQPAVPGTVNLAFEFIEGEAILLLLNQAGIAASSGSACTSGSLEPSHVMRAMNIPYTAAHGTIRFSLSRYTREKEIDYVVATLPPIIDRLRALSPYWQNGKPRPADAVFTPVYGAGGGGGYPYDVPDYAPG
notes: Expressed in N. benthamiana; also called pRA16
- binding result [3]: binds

B3: modified NifK polypeptide having a 9 amino acid C-terminal extension (YPYDVPDYA), encoded by modified pMIT2.1 (protein)
chain: MSQTIDKINSCYPLFEQDEYQELFRNKRQLEEAHDAQRVQEVFAWTTTAEYEALNFRREALTVDPAKACQPLGAVLCSLGFANTLPYVHGSQGCVAYFRTYFNRHFKEPIACVSDSMTEDAAVFGGNNNMNLGLQNASALYKPEIIAVSTTCMAEVIGDDLQAFIANAKKDGFVDSSIAVPHAHTPSFIGSHVTGWDNMFEGFAKTFTADYQGQPGKLPKLNLVTGFETYLGNFRVLKRMMEQMAVPCSLLSDPSEVLDTPADGHYRMYSGGTTQQEMKEAPDAIDTLLLQPWQLLKSKKVVQEMWNQPATEVAIPLGLAATDELLMTVSQLSGKPIADALTLERGRLVDMMLDSHTWLHGKKFGLYGDPDFVMGLTRFLLELGCEPTVILSHNANKRWQKAMNKMLDASPYGRDSEVFINCDLWHFRSLMFTRQPDFMIGNSYGKFIQRDTLAKGKAFEVPLIRLGFPLFDRHHLHRQTTWGYEGAMNIVTTLVNAVLEKLDSDTSQLGKTDYSFDLVRYPYDVPDYA
- ethylene production in acetylene reduction assay (E. coli DH5α, modified pMIT2.1 + pN249) [4]: the 9-amino acid C-terminal extension added to NifK completely abolished ethylene production

B4: pFAγ::NifK fusion polypeptide (pRA25), lacking any C-terminal extension (protein)
chain: MAMAVFRREGRRLLPSIAARPIAAIRSPLSSDQEEGLLGVRSISTQVVRNRMKSVKNIQKITKAMKMVAASKLRAVQGAPSQTIDKINSCYPLFEQDEYQELFRNKRQLEEAHDAQRVQEVFAWTTTAEYEALNFRREALTVDPAKACQPLGAVLCSLGFANTLPYVHGSQGCVAYFRTYFNRHFKEPIACVSDSMTEDAAVFGGNNNMNLGLQNASALYKPEIIAVSTTCMAEVIGDDLQAFIANAKKDGFVDSSIAVPHAHTPSFIGSHVTGWDNMFEGFAKTFTADYQGQPGKLPKLNLVTGFETYLGNFRVLKRMMEQMAVPCSLLSDPSEVLDTPADGHYRMYSGGTTQQEMKEAPDAIDTLLLQPWQLLKSKKVVQEMWNQPATEVAIPLGLAATDELLMTVSQLSGKPIADALTLERGRLVDMMLDSHTWLHGKKFGLYGDPDFVMGLTRFLLELGCEPTVILSHNANKRWQKAMNKMLDASPYGRDSEVFINCDLWHFRSLMFTRQPDFMIGNSYGKFIQRDTLAKGKAFEVPLIRLGFPLFDRHHLHRQTTWGYEGAMNIVTTLVNAVLEKLDSDTSQLGKTDYSFDLVR
- NifD::HA abundance and ratio of processed to unprocessed NifD on co-infiltration (SDS-PAGE, Western blot anti-HA) [5]: the addition of pRA25 in each case greatly enhanced NifD abundance, particularly for the combination of SN7 and pRA25. Most importantly, the ratio of processed to unprocessed NifD was enhanced by the addition of pRA25.
- amount of the approximately 48 kDa NifD::HA degradation product on co-expression (Western blot anti-HA) [5]: the amount of this product was also enhanced by co-expression of pRA25 (NifK)
- extent of MTP processing of NifD::HA on co-expression (Western blot) [6]: the extent of processing of the MTP sequence fused to NifD::HA was increased in the presence of the NifK and NifH polypeptides

B5: pFAγ::NifB::HA fusion polypeptide (enzyme)
chain: ISTQVVRNRMKSVKNIQKITKAMKMVAASKLRAVQGAPTSCSSFSGGKACRPADDSALTPLVADKAAAHPCYSRHGHHRFARMHLPVAPACNLQCNYCNRKFDCSNESRPGVSSTLLTPEQAVVKVRQVAQAIPQLSVVGIAGPGDPLANIARTFRTLELIREQLPDLKLCLSTNGLVLPDAVDRLLDVGVDHVTVTINTLDAEIAAQIYAWLWLDGERYSGREAGEILIARQLEGVRRLTAKGVLVKINSVLIPGINDSGMAGVSRALRASGAFIHNIMPLIARPEHGTVFGLNGQPEPDAETLAATRSRCGEVMPQMTHCHQCRADAIGMLGEDRSQQFTQLPAPESLPAWLPILHQRAQLHASIATRGESEADDACLVAVASSRGDVIDCHFGHADRFYIYSLSAAGMVLVNERFTPKYCQGRDDCEPQDNAARFAAILELLADVKAVFCVRIGHTPWQQLEQEGIEPCVDGAWRPVSEVLPAWWQQRRGSWPAALPHKGVAAGGGGGYPYDVPDYAPG
notes: Expressed in N. benthamiana; also called pRA03
- binding result [3]: binds
